Results reported in patent US20130209454A1.
Positions count from the first letter of the chain named. Names and notes keep the numbering of the source.

B1: NIH45-46^G54W(HC), S28Y(LC) (antibody, V domains shown)
VH: QVRLSQSGGQMKKPGESMRLSCRASGYEFLNCPINWIRLAPGRRPEWMGWLKPRWGAVNYARKFQGRVTMTRDVYSDTAFLELRSLTSDDTAVYFCTRGKYCTARDYYNWDFEHWGRGAPVTVSS
VL: EIVLTQSPATLSLSPGETAIISCRTSQYGSLAWYQQRPGQAPRLVIYSGSTRAAGIPDRFSGSRWGADYNLSISNLESGDFGVYYCQQYEFFGQGTKVQVDI
B2: NIH45-46^G54F IgG (antibody, name in Kabat numbering, V domains shown)
VH: B1 VH with W55F
VL: B1 VL with Y28S
B3: NIH45-46^G54W(HC) S28Y(LC) (antibody, V domains shown)
VH: B1 VH
VL: B1 VL
B4: NIH45-46^G54W IgG (antibody, name in Kabat numbering, V domains shown)
VH: B1 VH
VL: B1 VL with Y28S
B5: NIH45-46^G54W (antibody, V domains shown)
VH: B1 VH
VL: B1 VL with Y28S

Experiments:
[1] = molecular target: HIV-1 Env of strain 1394C9G1(Rev-) (HIV-1); test: cell-based or functional assay
[2] = molecular target: HIV-1 Env of strain 246F C1G (HIV-1); test: cell-based or functional assay
[3] = molecular target: HIV-1 Env of strain BJOX015000.11.5 (HIV-1); test: cell-based or functional assay
[4] = molecular target: HIV-1 Env of strain CNE19 (HIV-1); test: cell-based or functional assay
[5] = molecular target: HIV-1 Env of strain X1632_S2_B10 (HIV-1); test: cell-based or functional assay
[6] = molecular target: HIV-1 Env of strain X2088_c9 (HIV-1); test: cell-based or functional assay
[7] = molecular target: HIV-1 Env of strain Du172.17 (HIV-1); test: cell-based or functional assay
[8] = molecular target: Env of HIV-1 strain 191084 B7-19 (HIV-1); test: cell-based or functional assay
[9] = molecular target: Env of HIV-1 strain 191955_A11 (HIV-1); test: cell-based or functional assay
[10] = molecular target: Env of HIV-1 strain 231965.c01 (HIV-1); test: cell-based or functional assay
[11] = molecular target: Env of HIV-1 strain BJOX015000.11.5 (HIV-1); test: cell-based or functional assay
[12] = molecular target: Env of HIV-1 strain C3347.c11 (HIV-1); test: cell-based or functional assay
[13] = molecular target: Env of HIV-1 strain CNE20 (HIV-1); test: cell-based or functional assay
[14] = molecular target: Env of HIV-1 strain CNE53 (HIV-1); test: cell-based or functional assay
[15] = molecular target: Env of HIV-1 strain CNE58 (HIV-1); test: cell-based or functional assay
[16] = molecular target: Env of HIV-1 strain Ce0682_E4 (HIV-1); test: cell-based or functional assay
[17] = molecular target: Env of HIV-1 strain Ce704809221_1B3 (HIV-1); test: cell-based or functional assay
[18] = molecular target: Env of HIV-1 strain Du156.12 (HIV-1); test: cell-based or functional assay
[19] = molecular target: Env of HIV-1 strain P0402_c2_11 (HIV-1); test: cell-based or functional assay
[20] = molecular target: Env of HIV-1 strain Q23.17 (HIV-1); test: cell-based or functional assay
[21] = molecular target: Env of HIV-1 strain Q461.e2 (HIV-1); test: cell-based or functional assay
[22] = molecular target: Env of HIV-1 strain R1166.c01 (HIV-1); test: cell-based or functional assay
[23] = molecular target: Env of HIV-1 strain R2184.c04 (HIV-1); test: cell-based or functional assay
[24] = molecular target: Env of HIV-1 strain RHPA4259.7 (HIV-1); test: cell-based or functional assay
[25] = molecular target: Env of HIV-1 strain T250-4 (HIV-1); test: cell-based or functional assay
[26] = molecular target: Env of HIV-1 strain TRJO4551.58 (HIV-1); test: cell-based or functional assay
[27] = molecular target: Env of HIV-1 strain X1632_S2_B10 (HIV-1); test: cell-based or functional assay
[28] = molecular target: Env of HIV-1 strain X2131_C1_B5 (HIV-1); test: cell-based or functional assay
[29] = molecular target: Env of HIV-1 strain ZM109F.PB4 (HIV-1); test: cell-based or functional assay
[30] = molecular target: HIV-1 strain YU2 gp160 (gp120) (HIV-1) (UniProt P35961)
[31] = molecular target: YU2 gp160 point mutant at 279gp120 (HIV-1) (UniProt P35961)
[32] = molecular target: YU2 gp160 point mutant at 458gp120 (HIV-1) (UniProt P35961)
[33] = molecular target: YU2 gp160 point mutant at 458gp120 (HIV-1) (UniProt P35961); test: cell-based or functional assay

Row | Binder | IC50, pseudovirus neutralization [1] | IC50, pseudovirus neutralization [2] | IC50, pseudovirus neutralization [3] | IC50, pseudovirus neutralization [4] | IC50, pseudovirus neutralization [6] | neutralization IC50 [7] | IC80 [8] | IC80 [9] | IC80 [10] | IC80 [11] | IC80 [12] | IC80 [13] | IC80 [14] | IC80 [15] | IC80 [16] | IC80 [17] | IC80 [18] | IC80 [19] | IC80 [20] | IC80 [21] | further results
1 | B1 | 0.012 µg/mL | 0.036 µg/mL | 0.039 µg/mL | 0.022 µg/mL | 44.3 µg/mL |  |  |  |  |  |  |  |  |  |  |  |  |  |  |  | IC50, pseudovirus neutralization [5]: 0.001 µg/mL
2 | B2 |  |  |  |  |  | 16 µg/mL |  |  |  |  |  |  |  |  |  |  |  |  |  |  | 
3 | B3 |  |  |  |  |  |  | 0.016 µg/mL | 0.046 µg/mL | 0.035 µg/mL | 0.308 µg/mL | 0.034 µg/mL | 0.02 µg/mL | 0.039 µg/mL | 0.042 µg/mL | 0.031 µg/mL | 0.484 µg/mL | 0.024 µg/mL | 0.042 µg/mL | 0.05 µg/mL | 0.134 µg/mL | IC80 [22]: 1.01 µg/mL; IC80 [23]: 0.039 µg/mL; IC80 [24]: 0.007 µg/mL; IC80 [25]: 38.9 µg/mL; IC80 [26]: 0.02 µg/mL; IC80 [27]: 0.007 µg/mL; IC80 [28]: 0.145 µg/mL; IC80 [29]: 0.086 µg/mL
4 | B4 |  |  |  |  |  | 0.9 µg/mL |  |  |  |  |  |  |  |  |  |  |  |  |  |  | IC50, pseudovirus neutralization (TZM-bl, luciferase) (G459D (HIV-1)): 0.01 µg/mL; IC50, pseudovirus neutralization (TZM-bl, luciferase) [30]: 0.008 µg/mL; IC50, pseudovirus neutralization (TZM-bl, luciferase) (N280D (HIV-1)): > 50 µg/mL; IC50, pseudovirus neutralization (TZM-bl, luciferase) (N280Y (HIV-1)): > 50 µg/mL; IC50, pseudovirus neutralization (TZM-bl, luciferase) (R456W (HIV-1)): 6 µg/mL; IC50, pseudovirus neutralization (TZM-bl, luciferase) [31]: > 50 µg/mL; IC50, pseudovirus neutralization (TZM-bl, luciferase) [32]: 18 µg/mL; decrease of neutralization potency against YU2 [33]: > 1500 fold
5 | B5 | 0.001 µg/mL | 0.315 µg/mL | 0.048 µg/mL | 0.002 µg/mL | > 50 µg/mL |  | 0.026 µg/mL | 0.076 µg/mL | 0.035 µg/mL | 0.239 µg/mL | 0.028 µg/mL | 0.48 µg/mL | 0.005 µg/mL | 0.05 µg/mL | 0.039 µg/mL | 0.21 µg/mL | 0.005 µg/mL | 0.023 µg/mL | 0.03 µg/mL | 0.091 µg/mL | IC80 [22]: 0.51 µg/mL; IC80 [23]: 0.036 µg/mL; IC80 [24]: 0.007 µg/mL; IC80 [25]: 44.9 µg/mL; IC80 [26]: 0.05 µg/mL; IC80 [28]: 0.24 µg/mL; IC80 [29]: 0.07 µg/mL
